The values below come from patent US7211395 (dated 2007).

Bridges are numbered along the chain shown (N, C = ends). [ ]: non-standard residue; d: D form. Ahx = NCCCCCC(=O)O

Assay [1] deals with T1, human serum albumin (HSA) (human, UniProt P02768). The assay is described as follows: FP, pH 6.2, 0.14 M NaCl.
For assay [2], the target named is T1, human serum albumin (HSA). The assay is described as follows: FP, PBS.
In assay [3] the target is T1, human serum albumin (HSA). Briefly: FP, pH 7.4, 0.14 M NaCl, 0.1% caprylate.
The target in assay [4] is T1, human serum albumin (HSA). Briefly: FP.
Assay [5] deals with T1, human serum albumin (HSA). The assay is described as follows: FP, pH 9.1, 0.14 M NaCl.
Assay [6] deals with T1, human serum albumin (HSA). The assay is described as follows: FP, pH 7.4, 0.14 M NaCl.
The target in assay [7] is T1, human serum albumin (HSA). Briefly: FP, PBS. This is another data set of the same source.

B1: DX-317 (peptide)
chain: Ac-AEGTGDDWDCVTDWANRHQHCWALDPE[Ahx]K(fluorescein)-NH2
modifications: disulfide 10-21 (inferred)
On to B1, for which the Kd (in general, the constant that tells how readily two partners part at equilibrium) in assay [1] is above 200 µM.

B2: DX-1173 (peptide)
chain: Ac-AGKWYCAWDPLVCEIFGTGGGK-NH2
modifications: disulfide 6-13 (inferred); also: fluorescein label, position not given here
B2 displayed a Kd in assay [2] above 10 µM.

B3: DX-296 (peptide)
chain: Ac-AEGTGSHVGCNNALCMQYAPE[Ahx]K(fluorescein)-NH2
modifications: disulfide 10-15 (inferred)
Take B3: the Kd is above 100 µM in assay [1] and above 200 µM in assay [3].

B4: DX-232 (peptide)
chain: Ac-AEGTGSVAWCTIFLCLDVAPEGGGK(fluorescein)-NH2
modifications: disulfide 10-15 (inferred)
For B4, the Kd in assay [1] is 0.5 µM.

B5: DX-1175 (peptide)
chain: Ac-AGWTTCHIYDWFCSSSGTGGGK-NH2
modifications: disulfide 6-13 (inferred); also: fluorescein label, position not given here
Molecule B5 yielded a Kd in assay [2] of 30 µM.

B6: DX-1177 (peptide)
chain: Ac-AGLEYCFYQWWGCPHAGTGGGK-NH2
modifications: disulfide 6-13 (inferred); also: fluorescein label, position not given here
Turning to B6, the Kd in assay [2] turned out to be 153 µM.

B7: DX-236 truncation SEQ 39 (peptide)
chain: Ac-FWFCDRIAWYPQHLCEFLDPEGGGK-NH2
modifications: disulfide 4-15 (inferred)
In assay [4], B7 yielded a dissociation constant Kd of 8.9 µM.

B8: DX-313 (peptide)
chain: Ac-AEGTGDDWDCVTRWANRDQQCWGPDPE[Ahx]K(fluorescein)-NH2
modifications: disulfide 10-21 (inferred)
For B8, the results for the Kd in assay [5], in assay [6] and in assay [1] were 90 µM, above 200 µM and 80 µM, respectively.

B9: DX-1087 (peptide)
chain: Ac-GDSDFCDTPYWRDLWQCNSPDPGGGK-NH2
modifications: disulfide 6-17 (inferred); also: fluorescein label, position not given here
As to B9, the binding result in assay [7] is “no binding”.

B10: DX-321 (GD...GGGK form) (peptide)
chain: Ac-GDRNMCKFSWIRSPAFCARADPGGGK-NH2
modifications: disulfide 6-17 (inferred); also: fluorescein label, attachment site not given here
B10 returned a dissociation constant Kd in assay [2] above 10 µM.

B11: DX-295 (peptide)
chain: Ac-AEGTGSFKICDQWFCLMPAPE[Ahx]K(fluorescein)-NH2
modifications: disulfide 10-15 (inferred)
In the case of B11, the Kd in assay [1] is above 100 µM.

B12: DX-298 (peptide)
chain: Ac-AEGTGSNHGCWHFSCIWDAPE[Ahx]K(fluorescein)-NH2
modifications: disulfide 10-15 (inferred)
As to B12, the Kd in assay [5] and in assay [1] was above 200 µM in each case.

B13: DX-1163 (peptide)
chain: Ac-GDDSMCITWPFKRPWPCANDPGGGK-NH2
modifications: disulfide 6-17 (inferred); also: fluorescein label, position not given here
In assay [2], B13 returned an equilibrium dissociation constant (Kd) of 42 µM.

B14: DX-1171 (peptide)
chain: Ac-GSRSFCMDWPNHRDCDYSAPGGGK-NH2
modifications: disulfide 6-15 (inferred); also: fluorescein label, position not given here
In assay [2], B14 returned a dissociation constant (Kd) of 165 µM.

B15: DX-1089 (peptide)
chain: Ac-GDSFCVTYIGTWETVCKRSDPGGGK-NH2
modifications: disulfide 5-16 (inferred); also: fluorescein label, position not given here
Molecule B15 returned a Kd in assay [2] above 10 µM.

B16: DX-1093 (peptide)
chain: Ac-GSLWDCWLYDCEGNAPGGGK-NH2
modifications: disulfide 6-11 (inferred); also: fluorescein label, position not given here
In turn, B16 gave an equilibrium dissociation constant (Kd) in assay [2] above 10 µM.

B17: DX-1179 (peptide)
chain: Ac-AGYQFCTWDPIFCGWHGTGGGK-NH2
modifications: disulfide 6-13 (inferred); also: fluorescein label, position not given here
In assay [2], B17 had a Kd of 185 µM.

B18: DX-1169 (peptide)
chain: Ac-GDPRSCVEKYYWDVLICGFFDPGGGK-NH2
modifications: disulfide 6-17 (inferred); also: fluorescein label, position not given here
On to B18, for which the binding result in assay [7] is recorded as “no binding”.

B19: DX-1085 (peptide)
chain: Ac-GDRWFCDSAYWQEIPACARDDPGGGK-NH2
modifications: disulfide 6-17 (inferred); also: fluorescein label, position not given here
B19: the binding result in assay [7] is “no binding”.

B20: DX-315 (peptide)
chain: Ac-AEGTGDDWDCVTRWANRDQQCWALDPE[Ahx]K(fluorescein)-NH2
modifications: disulfide 10-21 (inferred)
For the molecule B20, the results for the Kd in assay [1] and in assay [3] were above 200 µM and above 100 µM, respectively.

B21: DX-1002 (peptide)
chain: Ac-GDLRDCQTTWPFTMMQCPNNDPGGGK-NH2
modifications: disulfide 6-17 (inferred); also: fluorescein label, position not given here
Take B21: the dissociation constant Kd in assay [2] turned out to be 4 µM.

B22: DX-319 (peptide)
chain: Ac-AEGTGDDWQCVKDWANRRRGCMADDPE[Ahx]K(fluorescein)-NH2
modifications: disulfide 10-21 (inferred)
In the case of B22, the Kd in assay [6] and in assay [1] was above 200 µM each time.

B23: DX-236 truncation SEQ 42 (peptide)
chain: Ac-AEGTGDFWFCDRIAWYPQHLCGGGK-NH2
modifications: disulfide 10-21 (inferred)
For B23, the equilibrium dissociation constant (Kd) in assay [4] came out at 8.9 µM.

B24: DX-297 (peptide)
chain: Ac-AEGTGSWKVCDHFFCLSPAPE[Ahx]K(fluorescein)-NH2
modifications: disulfide 10-15 (inferred)
As for B24, the dissociation constant Kd in assay [6], in assay [1] and in assay [3] was above 200 µM throughout.

B25: DX-997 (peptide)
chain: Ac-GDFSLCWIVDEDGTKWCLPDPGGGK-NH2
modifications: disulfide 6-17 (inferred); also: fluorescein label, attachment site not given here
Consider B25, for which, in assay [2], the Kd is above 10 µM.

B26: DX-1167 (peptide)
chain: Ac-GDSPYCKIALFQHFEVCAADDPGGGK-NH2
modifications: disulfide 6-17 (inferred); also: fluorescein label, position not given here
For the molecule B26, the Kd in assay [2] was above 10 µM.

B27: DX-1091 (peptide)
chain: Ac-GDLRSCFTYYPFTTFSCSPADPGGGK-NH2
modifications: disulfide 6-17 (inferred); also: fluorescein label, position not given here
The molecule B27 came in with a Kd in assay [2] above 10 µM.

B28: DX-1165 (peptide)
chain: Ac-GDNDGCTDTNWSWMFDCPPLDPGGGK-NH2
modifications: disulfide 6-17 (inferred); also: fluorescein label, position not given here
B28 showed a Kd in assay [2] above 10 µM.
